The values that follow come from article PMC10631681, “The structural basis of mRNA recognition and binding by yeast pseudouridine synthase PUS1”.

The target in data set [1] is T1, PUS1 wild type (tagless, crystal) (Saccharomyces cerevisiae, UniProt Q12211 1-544).
T1 sequence: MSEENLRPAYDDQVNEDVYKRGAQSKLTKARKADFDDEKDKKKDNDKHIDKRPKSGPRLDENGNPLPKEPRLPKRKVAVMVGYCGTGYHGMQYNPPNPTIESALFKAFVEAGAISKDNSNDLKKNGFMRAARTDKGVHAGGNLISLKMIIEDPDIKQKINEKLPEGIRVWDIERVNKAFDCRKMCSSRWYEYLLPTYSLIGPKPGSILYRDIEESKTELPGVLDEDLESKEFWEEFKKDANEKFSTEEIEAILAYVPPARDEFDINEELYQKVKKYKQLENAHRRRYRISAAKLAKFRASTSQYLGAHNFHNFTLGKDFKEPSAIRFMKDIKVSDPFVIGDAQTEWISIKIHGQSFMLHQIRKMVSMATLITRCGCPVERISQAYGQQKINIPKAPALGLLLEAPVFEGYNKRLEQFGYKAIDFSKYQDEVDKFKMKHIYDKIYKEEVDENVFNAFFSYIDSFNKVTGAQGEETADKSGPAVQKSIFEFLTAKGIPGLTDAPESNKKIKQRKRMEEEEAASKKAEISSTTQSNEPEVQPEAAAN
Nature of the data set: X-ray crystallography (2.9 A); EMSA: 100 nM R263 with 100 nM-1 uM PUS1 in 100 ul under PUS1 activity assay conditions (buffer not in the material), 90 min, SYBR Gold stain; crystals: 7R9G 0.05 M ammonium sulfate, 0.05 M Bis-Tris pH 6.0, 26% pentaerythritol ethoxylate, 4 C; 7R9F 0.2 M K/Na tartrate, 18% PEG 3350, 25 C. The conditions noted are these: protein: recombinant; tags: none; chain copies: 2; self-duplex of 2 copies, same duplex as R263.

Data set [2] deals with T2, PUS1 wild type (His-tagged) (Saccharomyces cerevisiae, UniProt Q12211 1-544).
T2 sequence: T1 sequence
Nature of the data set: EMSA; 100 nM RNA, increasing protein; EMSA: 100 nM R263 with 100 nM-1 uM PUS1 in 100 ul under PUS1 activity assay conditions (buffer not in the material), 90 min, SYBR Gold stain; crystals: 7R9G 0.05 M ammonium sulfate, 0.05 M Bis-Tris pH 6.0, 26% pentaerythritol ethoxylate, 4 C; 7R9F 0.2 M K/Na tartrate, 18% PEG 3350, 25 C. The settings on record: protein: recombinant; tags: N-terminal 6xHis; predicted short stem-loop; strand state in EMSA not determined.

In the next data set the target is T3, PUS1 D134A (His-tagged) (Saccharomyces cerevisiae, UniProt Q12211 1-544, D134A).
T3 sequence: T1 sequence with D134A
Described as above. The conditions noted are these: protein: recombinant; tags: N-terminal 6xHis; predicted short stem-loop; strand state in EMSA not determined.

For data set [3], the target named is T4, PUS1 D134A (tagless, crystal) (Saccharomyces cerevisiae, UniProt Q12211 1-544, D134A).
T4 sequence: T1 sequence with D134A
Nature of the data set: X-ray crystallography (2.4 A); sulfate ion near RNA 5' end; EMSA: 100 nM R263 with 100 nM-1 uM PUS1 in 100 ul under PUS1 activity assay conditions (buffer not in the material), 90 min, SYBR Gold stain; crystals: 7R9G 0.05 M ammonium sulfate, 0.05 M Bis-Tris pH 6.0, 26% pentaerythritol ethoxylate, 4 C; 7R9F 0.2 M K/Na tartrate, 18% PEG 3350, 25 C. The settings on record: protein: recombinant; tags: none; chain copies: 2; self-duplex of 2 copies; positions 2-10 paired with non-Watson-Crick pairs (two central G:G reverse Hoogsteen); 3' ends disordered. In general terms: A gel shift assay detects complexes by their altered migration in electrophoresis.

Numbering of substitutions follows the chain as printed.

B1: R340 duplex (crystal) (dsRNA)
RNA 1: UAAUCGGGAUUCCGGAUA
RNA 2: UAAUCGGGAUUCCGGAUA
modifications: 5-fluorouracil at position 1 (written as U)
Take B1: the binding result in data set [1] is “binds”.

B2: R263 (EMSA) (ssRNA)
RNA: AAAUCGGGAUUCCGGAUA
Regarding B2, the binding result (in data set [2]; in the data set with PUS1 D134A (His-tagged)) was “binds” in each case.

B3: R263 duplex (crystal) (dsRNA)
RNA 1: AAAUCGGGAUUCCGGAUA
RNA 2: AAAUCGGGAUUCCGGAUA
Turning to B3, the binding result in data set [3] is on record as “binds”.
